B1: SCNN1D (parent)
chain: FLGHHSFSVRPGTEATISIREDEV
B2: HDAC6 (parent)
chain: QEGLLDRCVSFQARFAEKEELMLV

Variants of: B1
Assay: protein stability index of a GFP-peptide fusion (GPS, HEK-293T) (PSI 1-6); higher = more stable
Conditions: c terminus: a fixed tail appended
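Further: lentivirally expressed fusions sorted by FACS into six bins by GFP to DsRed ratio, PSI derived from sequencing read proportions per bin multiplied by bin number.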

Point of comparison: H5C, protein stability index 1.53. Against it:
- E21L — higher, 2.48
- E21P — higher, 2.33
- E21S — higher, 1.8
- E21R — higher, 2.6
- I19R — higher, 2.06
- G12V — higher, 1.57
- G12M — higher, 1.85
- T13D — higher, 1.63
- A15I — higher, 1.95
- F7N — higher, 4.38
- F7M — higher, 4.18
- H4N — higher, 2.29
- H4C — lower, 1.39
- H5Y — higher, 1.89
- F1K — higher, 4.3
- R10F — higher, 1.66
- R10C — higher, 2.52
- R20N — lower, 1.49
- R20K — higher, 1.73
- E14M — lower, 1.25
- E14T — higher, 2.24
- E14K — higher, 1.93
- P11G — higher, 1.64
- V9A — higher, 2.36
- S8K — higher, 1.57
- S8A — higher, 3.59
- S8W — higher, 2.68
- E23C — higher, 1.88
- E23R — higher, 1.73
- E23W — higher, 3.12
- T16E — higher, 1.62
- T16N — higher, 2.05
- S18I — higher, 1.96
- S18K — higher, 1.67

Variants of: B2
Assay: as above
Conditions: c terminus: a fixed tail appended

Point of comparison: E2T, protein stability index 2.14. Against it:
- A13S — lower, 1.57
- A13I — lower, 1.47
- A13M — lower, 1.89
- A13F — higher, 2.2
- A13Y — lower, 1.76
- A13P — lower, 2.05
- A13T — lower, 2.03
- A13Q — lower, 2.08
- A13N — lower, 1.89
- A13C — lower, 1.4
- A13G — lower, 1.85
- A13V — lower, 1.39
- A13D — higher, 2.44
- A13R — lower, 1.93
- A13E — lower, 1.31
- A13L — lower, 1.38
- A13K — higher, 2.47
- A13W — higher, 2.2
- A13H — higher, 2.59
- F15V — higher, 2.49
- F15P — higher, 3.02
- F15N — higher, 3.04
- F15H — higher, 2.4
- F15K — higher, 3.13
- F15T — higher, 2.81
- F15G — higher, 2.54
- F15C — higher, 2.36
- F15Q — higher, 2.55
- F15Y — lower, 1.62
- F15I — lower, 1.56
- F15E — higher, 2.91
- F15D — higher, 3.55
- F15R — higher, 2.58
- F15L — higher, 2.23
- F15A — higher, 2.33
- F15M — higher, 2.16
- F15W — higher, 2.36
- F15S — higher, 2.9
- L4D — lower, 1.75
- L4S — lower, 1.75
- L4Q — lower, 1.99
- L4V — lower, 1.9
- L4A — lower, 1.62
- L4K — lower, 1.94
- L4H — lower, 1.44
- L4C — higher, 2.73
- L4W — lower, 1.5
- L4T — lower, 1.91
- L4E — lower, 1.85
- L4M — higher, 2.19
- L4I — lower, 1.79
- L4N — lower, 2.06
- L4F — higher, 2.47
- L4P — lower, 2.04
- L4G — lower, 1.43
- L4R — lower, 1.79
- L4Y — lower, 2.01
- S10Y — higher, 2.56
- S10A — higher, 2.5
- S10C — lower, 1.77
- S10M — lower, 1.64
- S10Q — lower, 2.1
- S10E — higher, 2.17
- S10H — lower, 1.75
- S10T — higher, 2.31
- S10N — lower, 1.66
- S10W — lower, 1.86
- S10F — lower, 1.83
- S10I — lower, 1.77
- S10R — higher, 2.37
- S10V — lower, 1.45
- S10D — higher, 2.19
- S10G — lower, 1.82
- S10L — lower, 1.89
- S10K — lower, 2.13
- S10P — lower, 1.99
- V9I — higher, 2.44
- V9Q — higher, 2.7
- V9Y — higher, 2.29
- V9P — higher, 2.36
- V9S — higher, 2.84
- V9E — higher, 2.35
- V9H — lower, 1.94
- V9N — higher, 2.58
- V9K — higher, 2.34
- V9F — lower, 1.63
- V9C — higher, 2.18
- V9D — higher, 2.29
- V9M — higher, 2.57
- V9L — lower, 1.74
- V9R — lower, 2
- V9G — lower, 1.9
- V9A — lower, 1.71
- V9T — lower, 2.07
- V9W — lower, 1.79
- F11M — higher, 2.17
- F11Y — lower, 2.03
- F11N — higher, 2.93
- F11S — higher, 2.53
- F11A — higher, 2.35
- F11H — higher, 2.37
- F11W — lower, 1.75
- F11Q — lower, 2.1
- F11T — higher, 2.83
- F11K — higher, 2.33
- F11P — higher, 2.73
- F11G — higher, 2.43
- F11E — higher, 3.09
- F11V — higher, 2.17
- F11L — lower, 1.71
- F11I — lower, 2
- F11C — higher, 3.17
- F11D — higher, 3.01
- F11R — higher, 2.66
- E2V — higher, 2.44
- E2D — lower, 1.83
- E2W — lower, 1.57
- E2P — higher, 2.56
- E2N — lower, 1.28
- E2Y — lower, 1.8
- E2I — lower, 2.12
- E2K — lower, 1.94
- E2F — lower, 1.77
- E2C — lower, 2
- E2Q — lower, 1.21
- E2M — lower, 1.62
- E2S — higher, 2.5
- E2A — lower, 1.12
- E2H — lower, 1.96
- E2R — lower, 1.95
- E2L — lower, 1.69
- E2G — higher, 2.52
- A16R — higher, 2.62
- A16K — higher, 2.38
- A16S — higher, 2.21
- A16N — lower, 1.97
- A16G — lower, 1.62
- A16E — higher, 2.6
- A16H — lower, 1.41
- A16T — lower, 1.74
- A16P — lower, 2.11
- A16L — lower, 1.07
- A16I — higher, 2.31
- A16F — lower, 1.75
- A16M — lower, 1.87
- A16D — lower, 1.84
- A16Q — lower, 1.93
- A16C — lower, 1.48
- G3Y — lower, 1.31
- G3N — higher, 2.93
- G3L — lower, 1.64
- G3T — lower, 1.97
- G3E — higher, 2.54
- G3S — higher, 2.19
- G3A — lower, 1.89
- G3I — lower, 1.95
- G3F — lower, 1.06
- G3R — lower, 2.01
- G3D — lower, 2.12
- G3Q — lower, 2.01
- G3M — lower, 2.04
- G3P — lower, 1.78
- G3C — higher, 2.3
- G3H — lower, 2.12
- G3K — higher, 2.16
- G3V — lower, 1.4
- G3W — lower, 1.79
- L5P — lower, 1.83
- L5S — lower, 1.9
- L5A — lower, 1.87
- L5F — lower, 1.33
- L5R — lower, 1.78
- L5C — lower, 1.34
- L5V — lower, 2.06
- L5I — lower, 2.07
- L5N — higher, 2.36
- L5W — lower, 1.58
- L5G — lower, 1.71
- L5E — higher, 3.01
- L5Q — lower, 1.56
- L5D — higher, 2.62
- L5Y — lower, 1.79
- L5K — lower, 1.72
- L5T — lower, 1.87
- L5M — lower, 1.73
- L5H — lower, 1.67
- Q12N — higher, 2.65
- Q12I — higher, 2.57
- Q12K — lower, 2
- Q12R — lower, 1.58
- Q12W — lower, 1.08
- Q12E — lower, 1.83
- Q12H — higher, 2.81
- Q12M — lower, 2.02
- Q12V — lower, 1.14
- Q12T — lower, 1.99
- Q12P — higher, 2.47
- Q12G — higher, 2.77
- Q12D — lower, 1.87
- Q12A — lower, 1.66
- Q12C — lower, 2.1
- Q12L — lower, 1.52
- Q12S — lower, 1.6
- Q12F — lower, 1.69
- C8Y — higher, 4.19
- C8W — lower, 1.62
- C8L — lower, 1.57
- C8H — lower, 1.93
- C8S — higher, 2.44
- C8E — lower, 2.04
- C8P — lower, 1.87
- C8T — higher, 2.27
- C8M — lower, 1.98
- C8R — lower, 1.98
- C8A — lower, 1.97
- C8V — higher, 2.17
- C8Q — lower, 2.12
- C8N — lower, 1.9
- C8K — higher, 2.45
- C8D — lower, 1.77
- C8F — lower, 1.61
- C8I — lower, 1.67
- C8G — higher, 2.61
- D6N — higher, 2.37
- D6S — lower, 2.13
- D6K — higher, 2.69
- D6R — lower, 2
- D6L — lower, 1.9
- D6A — higher, 2.45
- D6V — lower, 2.06
- D6E — lower, 1.84
- D6Q — lower, 1.87
- D6W — higher, 2.38
- D6P — lower, 1.38
- D6G — lower, 1.74
- D6H — lower, 2.09
- D6I — lower, 1.69
- D6M — lower, 1.87
- D6C — lower, 1.78
- D6F — lower, 1.54
- D6T — lower, 1.64
- D6Y — lower, 1.95
- R7W — lower, 1.83
- R7D — lower, 1.69
- R7N — lower, 2.13
- R7M — lower, 1.92
- R7A — higher, 2.74
- R7C — higher, 2.32
- R7T — lower, 1.73
- R7H — lower, 1.7
- R7E — lower, 1.93
- R7K — lower, 1.43
- R7F — higher, 2.59
- R7I — higher, 2.91
- R7Q — lower, 1.94
- R7L — higher, 2.69
- R7P — higher, 2.56
- R7V — lower, 1.71
- R7S — higher, 3.14
- R7G — higher, 2.17
- R7Y — lower, 1.66
- Q1P — lower, 2.13
- Q1K — lower, 1.39
- Q1L — higher, 2.33
- Q1W — lower, 1.47
- Q1C — lower, 1.39
- Q1A — lower, 1.94
- Q1T — lower, 1.77
- Q1D — lower, 1.85
- Q1E — higher, 2.51
- Q1S — higher, 2.34
- Q1I — higher, 2.48
- Q1M — lower, 1.94
- Q1Y — lower, 1.25
- Q1G — lower, 1.51
- Q1F — lower, 1.18
- Q1N — lower, 1.91
- Q1R — lower, 1.63
- Q1H — lower, 1.54
- Q1V — lower, 1.54
- R14Y — higher, 2.24
- R14N — higher, 2.41
- R14L — lower, 1.7
- R14Q — lower, 1.71
- R14T — the same, 2.14
- R14I — higher, 2.35
- R14P — lower, 1.97
- R14D — higher, 2.54
- R14V — lower, 1.38
- R14G — lower, 2.07
- R14H — higher, 2.27
- R14S — lower, 1.9
- R14C — higher, 2.21
- R14M — lower, 1.66
- R14E — higher, 2.57
- R14F — lower, 1.56
- R14K — lower, 2.06
- R14A — lower, 1.4
